± gives the uncertainty stated by the source.
Assay: self-splicing fitness, log relative to wild type (ln ratio); higher = more splicing; Tetrahymena group I intron in knt gene, E. coli kanamycin selection, DiMSum; sequences stand for … in CUCUCU…GGAGGGAAAAGUUAUCAGGCAUGCACCUGGUAGCUAGUCUUUAAACCAAUAGAUUGCAUCGGUUUAAAAGGCAAGACCGUCAAAUUGCGGGAAAGGGGUCAACAGCCGUUCAGUACCAAGUCUCAGGGGAAACUUUGAGAUGGCCUUGCAAAGGGUAUGGUAAUAAGCUGACGGACAUGGUCCUAACCACGCAGCCAAGUCCUAAGUCAACAGAUCUUCUGUUGAUAUGGAUGCAGUUCACAGACUAAAUGUCGGUCGGGGAAGAUGUAUUCUUCUCAUAAGAUAUAGUCGGACCUCUCCUUAAUGGGAGCUAGCGGAUGAAGUGAUGCAACACUGGAGCCGCUGGGAACUAAUUUGUAUGCGAAAGUAUAUUGAUUAGUUUUGGAGUACUCGUGGUCG
How it was run: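 A randomised library covering all eight P1ex-region intron nucleotides was built with the intron in the knt kanamycin-resistance gene on pET-22b(+) and held in E. coli BL21(DE3). Cells were grown overnight at 37°C or 30°C on LB agar, with or without 25 μg/mL kanamycin, plus 100 μg/mL carbenicillin, 50 μM IPTG and 0.2% rhamnose, and pooled colonies were amplicon-sequenced on an Illumina HiSeq 2500. DiMSum fitness is the error-weighted combination of wild-type-normalised replicate fold changes, kanamycin versus none.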

| Sequence | self-splicing fitness (ln) (30 °C) | self-splicing fitness (ln) (37 °C) |
| --- | --- | --- |
| CGCAAGCAAUAUUACGAACC | -2.01 ± 0.19 | -0.722 ± 0.19 |
| AUCGAGCAAUAUUACGCUGC | -2.59 ± 0.45 | – |
| CUGUAGCAAUAUUACGUCCG | -0.133 ± 0.08 | 0.0507 ± 0.11 |
| AGGAAGCAAUAUUACGGCGG | -1.34 ± 0.085 | -0.207 ± 0.11 |
| UGAGAGCAAUAUUACGGCCG | -3.57 ± 0.43 | -1.38 ± 0.25 |
| UCAAAGCAAUAUUACGAUUC | -3.67 ± 0.27 | -2.63 ± 0.28 |
| UAAUAGCAAUAUUACGUCCG | -0.913 ± 0.23 | -0.835 ± 0.2 |
| ACGGAGCAAUAUUACGGAGU | -2.53 ± 0.27 | -1.55 ± 0.18 |
| GCCAAGCAAUAUUACGAAAA | -2.45 ± 0.27 | -1.54 ± 0.2 |
| AUUUAGCAAUAUUACGUAAU | -0.35 ± 0.082 | -0.32 ± 0.12 |
| GCACAGCAAUAUUACGUGAC | -1.13 ± 0.089 | -1.97 ± 0.1 |
| CUACAGCAAUAUUACGCAUG | -1.48 ± 0.086 | -1.44 ± 0.079 |
| CAUUAGCAAUAUUACGAUAA | -2.24 ± 0.2 | -1.75 ± 0.23 |
| CUAAAGCAAUAUUACGUAUU | -3.61 ± 0.19 | -2.17 ± 0.24 |
| AGAAAGCAAUAUUACGUGAU | -2.17 ± 0.069 | -1.25 ± 0.091 |
| UCUCAGCAAUAUUACGGUGU | -2.03 ± 0.086 | -1 ± 0.097 |
| UGAAAGCAAUAUUACGGGAC | -3.12 ± 0.24 | -2.31 ± 0.21 |
| GCAUAGCAAUAUUACGACCU | -0.833 ± 0.15 | -0.375 ± 0.15 |
| GUCAAGCAAUAUUACGAUAC | -3.1 ± 0.14 | -1.16 ± 0.09 |
| UAGCAGCAAUAUUACGACAA | -1.68 ± 0.12 | -0.157 ± 0.14 |
| AUCAAGCAAUAUUACGCCCG | -0.965 ± 0.17 | -0.202 ± 0.2 |
| ACCAAGCAAUAUUACGUUGC | -2.65 ± 0.086 | -0.992 ± 0.075 |
| AUCCAGCAAUAUUACGUGAC | -1.03 ± 0.077 | -0.702 ± 0.11 |
| UGGUAGCAAUAUUACGAUGC | -3.09 ± 0.5 | -1.82 ± 0.43 |
| UCUAAGCAAUAUUACGGCAA | -1.94 ± 0.34 | -1.22 ± 0.21 |
| AGUGAGCAAUAUUACGGAGG | -3.77 ± 0.28 | -2.67 ± 0.27 |

| Sequence | self-splicing fitness (ln) (30 °C) | self-splicing fitness (ln) (37 °C) |
| --- | --- | --- |
| ACCUAGCAAUAUUACGCUCG | -1.43 ± 0.12 | -1.48 ± 0.14 |
| GGUCAGCAAUAUUACGCCGG | -2.68 ± 0.27 | -2.79 ± 0.3 |
| CCUUAGCAAUAUUACGCAAU | -3.51 ± 0.23 | -1.47 ± 0.23 |
| AAAGAGCAAUAUUACGAGCU | – | -2.09 ± 0.28 |
| CUGAAGCAAUAUUACGGGAC | -0.993 ± 0.072 | -0.612 ± 0.1 |
| UACAAGCAAUAUUACGCGUC | -2.06 ± 0.1 | -1.23 ± 0.14 |
| GCUCAGCAAUAUUACGUUCG | -1.13 ± 0.065 | -0.838 ± 0.074 |
| ACAAAGCAAUAUUACGCUAU | -2.38 ± 0.088 | -0.848 ± 0.092 |
| UGUGAGCAAUAUUACGCCCU | -1.54 ± 0.44 | -0.113 ± 0.36 |
| GCUGAGCAAUAUUACGCGGG | -2.93 ± 0.14 | -1.19 ± 0.14 |
| UACGAGCAAUAUUACGCAGG | -2.88 ± 0.21 | -2.64 ± 0.22 |
| AGGCAGCAAUAUUACGCGCG | -0.446 ± 0.12 | -0.358 ± 0.14 |
| GCACAGCAAUAUUACGGUGG | -1.54 ± 0.048 | -1.35 ± 0.07 |
| GGAAAGCAAUAUUACGCGUC | -3.58 ± 0.22 | -2.89 ± 0.23 |
| UAGCAGCAAUAUUACGUACC | -1.91 ± 0.38 | – |
| GGUGAGCAAUAUUACGGAUA | -2.24 ± 0.18 | -1.88 ± 0.22 |
| GGUCAGCAAUAUUACGUAUC | -0.892 ± 0.078 | -0.138 ± 0.1 |
| UAACAGCAAUAUUACGUUUC | -4.16 ± 0.26 | -2.44 ± 0.23 |
| UUGCAGCAAUAUUACGCAAC | – | -2.11 ± 0.22 |
| CAAGAGCAAUAUUACGAGUG | -1.46 ± 0.089 | -1.23 ± 0.12 |
| CUCUAGCAAUAUUACGCGGG | -3.39 ± 0.18 | -1.41 ± 0.14 |
| UAAAAGCAAUAUUACGAAGU | -2.95 ± 0.29 | -2.23 ± 0.21 |
| AGACAGCAAUAUUACGUGUG | -2 ± 0.063 | -1.44 ± 0.072 |
| CGUUAGCAAUAUUACGGCCU | -1.53 ± 0.15 | -1.26 ± 0.23 |
| GCUUAGCAAUAUUACGAUAU | -1.67 ± 0.18 | -0.39 ± 0.17 |
| AUAUAGCAAUAUUACGAUAG | -2.39 ± 0.22 | -1.51 ± 0.24 |

| Sequence | self-splicing fitness (ln) (30 °C) | self-splicing fitness (ln) (37 °C) |
| --- | --- | --- |
| GACAAGCAAUAUUACGGAAC | -1.94 ± 0.1 | -1.69 ± 0.17 |
| AUGUAGCAAUAUUACGCAGC | -2.64 ± 0.37 | -0.433 ± 0.17 |
| UUGUAGCAAUAUUACGACGC | -2.8 ± 0.44 | -0.663 ± 0.36 |
| UUCCAGCAAUAUUACGGCAU | -1.79 ± 0.085 | -0.66 ± 0.089 |
| UUGAAGCAAUAUUACGUUUU | -2.7 ± 0.2 | -2.52 ± 0.3 |
| UUGGAGCAAUAUUACGAUAA | -2.08 ± 0.26 | 0.881 ± 0.28 |
| CUUCAGCAAUAUUACGUACA | – | -2.14 ± 0.5 |
| CCCCAGCAAUAUUACGUAGG | -3.78 ± 0.12 | -2.68 ± 0.15 |
| GAAGAGCAAUAUUACGAGCA | – | -1.33 ± 0.33 |
| UUUCAGCAAUAUUACGCCCA | -1.19 ± 0.22 | -0.699 ± 0.22 |
| UAUUAGCAAUAUUACGAAUU | -2.51 ± 0.2 | -0.596 ± 0.21 |
| GGACAGCAAUAUUACGAAUA | -1.69 ± 0.13 | -0.937 ± 0.13 |
| CAUAAGCAAUAUUACGCGUU | -3.3 ± 0.15 | -1.55 ± 0.13 |
| CCGUAGCAAUAUUACGUUCU | -3.34 ± 0.28 | -3.36 ± 0.42 |
| GCACAGCAAUAUUACGCUGG | -3.29 ± 0.18 | -1.92 ± 0.15 |
| AGUGAGCAAUAUUACGGGUU | -2.39 ± 0.26 | -2.35 ± 0.33 |
| CUCGAGCAAUAUUACGGUCC | -3 ± 0.36 | -2.33 ± 0.45 |
| UGGGAGCAAUAUUACGUCAG | -2.87 ± 0.23 | -1.5 ± 0.3 |
| GUGGAGCAAUAUUACGCGAU | -2.82 ± 0.32 | -2.31 ± 0.39 |
| CCGUAGCAAUAUUACGUCUC | -3.43 ± 0.21 | -3.67 ± 0.31 |
| CCCGAGCAAUAUUACGCACA | -2.87 ± 0.27 | -1.68 ± 0.32 |
| GGCAAGCAAUAUUACGUGAC | -1.6 ± 0.12 | -0.479 ± 0.14 |
| GCCAAGCAAUAUUACGGUUU | -1.08 ± 0.047 | -0.943 ± 0.07 |
| UUACAGCAAUAUUACGCGUG | -1.17 ± 0.081 | -0.156 ± 0.093 |
| GUCUAGCAAUAUUACGUUGC | -2.55 ± 0.42 | -0.754 ± 0.41 |
